# From PMC7862700, “An all-to-all approach to the identification of sequence-specific readers for epigenetic DNA modifications on cytosine”
# B1: ETS family probe (dsDNA)
# DNA 1: ACTTCCGGTTATAGTGAGTGCTATTA
# DNA 2: TAATAGCACTCACTATAACCGGAAGT
# Tests used:
# SPDEF = target: T1, SPDEF (Homo sapiens, UniProt O95238 1-335); experiment: BLI (OCTET); EMSA: 25 mM HEPES pH 8.0, 100 mM NaCl, 50 mM KAc, 5 mM MgCl2, 5% glycerol, 1 mM DTT, 0.1 mg/mL BSA, ~22 C, 5 nM probe; OCTET: 50 mM HEPES pH 8.0, 100 mM NaCl, 50 mM KAc, 5 mM MgCl2, 40 mM glutathione, 5 mg/mL BSA, 0.05% Tween-20; settings: protein: recombinant; tags: N-terminal GST; label: 5' biotin on strand 2 (Bio-T7 primer); blunt
# T1 sequence: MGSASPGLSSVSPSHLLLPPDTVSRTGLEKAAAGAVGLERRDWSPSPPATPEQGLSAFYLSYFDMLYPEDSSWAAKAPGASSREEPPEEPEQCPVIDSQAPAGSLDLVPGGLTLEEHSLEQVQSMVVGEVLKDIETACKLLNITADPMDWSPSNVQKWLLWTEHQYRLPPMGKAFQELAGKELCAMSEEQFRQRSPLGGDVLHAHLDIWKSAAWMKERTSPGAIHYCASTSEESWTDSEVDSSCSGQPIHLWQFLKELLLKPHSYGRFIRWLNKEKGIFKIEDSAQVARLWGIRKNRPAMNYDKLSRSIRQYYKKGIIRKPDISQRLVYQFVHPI
# ETS2 = target: T2, ETS2 (Homo sapiens, UniProt P15036 1-469); experiment: as above; settings: protein: recombinant; tags: N-terminal GST; label: 5' biotin on strand 2 (Bio-T7 primer); blunt
# T2 sequence: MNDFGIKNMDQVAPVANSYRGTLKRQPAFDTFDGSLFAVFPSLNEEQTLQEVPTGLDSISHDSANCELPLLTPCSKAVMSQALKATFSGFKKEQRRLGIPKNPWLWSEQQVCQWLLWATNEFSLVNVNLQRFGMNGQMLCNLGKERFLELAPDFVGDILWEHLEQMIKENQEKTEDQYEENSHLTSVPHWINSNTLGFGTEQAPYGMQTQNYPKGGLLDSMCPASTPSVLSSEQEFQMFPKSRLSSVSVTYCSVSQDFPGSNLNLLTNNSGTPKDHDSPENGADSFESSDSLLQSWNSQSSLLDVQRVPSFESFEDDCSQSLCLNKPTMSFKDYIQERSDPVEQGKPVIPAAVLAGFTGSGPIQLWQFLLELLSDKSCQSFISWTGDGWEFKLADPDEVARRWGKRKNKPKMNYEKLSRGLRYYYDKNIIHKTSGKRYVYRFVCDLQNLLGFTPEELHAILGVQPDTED
binder,measurement,setting,value
B1,Kd,SPDEF,132 nM
same,Kd,ETS2,1.8 nM
